In US20230017515A1 (JIANGSU ALPHAMAB BIOPHARMACEUTICALS, published 2023):

Molecular target: T1, human PD-L1 (WT) (human, UniProt Q9NZQ7 19-127, limits assumed)
T1 construct: also called human PD-L1 N-terminal IgV domain
Assay: affinity measurement, method not stated

T1 sequence (Q9NZQ7 19-127 limits assumed): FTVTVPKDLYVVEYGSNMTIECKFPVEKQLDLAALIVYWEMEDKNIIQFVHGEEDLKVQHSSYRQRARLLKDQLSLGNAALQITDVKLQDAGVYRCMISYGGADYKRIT

- Kd: 5.92 nM
B1: PD-L1 ISVD-9 (VHH)
VHH: QVQLVESGGGLVQPGGSLRLSCAASGKMSSRRCMAWFRQAPGKERERVAKLLTTSGSTYLADSVKGRFTISRDNSKNTVYLQMNSLRAEDTAVYYCAADSFEDPTCTLVTSSGAFQYWGQGTLVTVSS
notes: also called ISVD specific for PD-L1; aPDL1.9
